The source of these data is patent US5786168.

Experiment [1] deals with PLA2-binding GIF from anti-CD3-treated AC5 cells (human). Nature of the experiment: ELISA of the acid eluate fraction from 110BH3-Sepharose. (In general: ELISA stands for enzyme-linked immunosorbent assay.)
The target of experiment [2] is human antigen non-specific glycosylation inhibiting factor (GIF), hybridoma-derived (human). Description: ELISA, culture supernatant on wells coated with affinity-purified GIF from CL3.
The target is the same in experiment [3]. Description: ELISA of the flow-through fraction from 110BH3-Sepharose.
Experiment [4] deals with recombinant human GIF secreted by COS-1 cells co-transfected with SRα-hcGIF and SRα-hfurin (human). Nature of the experiment: fractionation of concentrated COS-1 supernatant on 388F1-Sepharose; GIF bioassay.
For experiment [5], the target named is bovine serum albumin (BSA) (bovine) (UniProt P02769). Nature of the experiment: ELISA, nonspecific binding of Ig in the same supernatant to BSA-coated wells.

As to “monoclonal anti-human GIF antibody 388F1 (ATCC HB 10472)”, the values for the ELISA signal (absorption at 490 nm) in experiment [1] and in experiment [3] were 0.86 absorbance and 0.36 absorbance, respectively. In experiment [2], this substance showed an ELISA signal (optical density at 410 mµ) of 0.892 OD. For the same substance, the GIF activity recovered in the acid eluate fraction in experiment [4] was more than 75%. This substance returned an ELISA control (optical density at 410 mµ) in experiment [5] of 0.1 OD.
